Experimental data reported in patent publication US20200071424A1 (SHIONOGI, published 2020).

Columns and labels:
baboon EL [1] = biological target: baboon EL (baboon); test: cell-based or functional assay
mouse EL [2] = biological target: T1, mouse EL (mouse, UniProt Q9WVG5 21-500); test: cell-based or functional assay
T1 sequence (looked up): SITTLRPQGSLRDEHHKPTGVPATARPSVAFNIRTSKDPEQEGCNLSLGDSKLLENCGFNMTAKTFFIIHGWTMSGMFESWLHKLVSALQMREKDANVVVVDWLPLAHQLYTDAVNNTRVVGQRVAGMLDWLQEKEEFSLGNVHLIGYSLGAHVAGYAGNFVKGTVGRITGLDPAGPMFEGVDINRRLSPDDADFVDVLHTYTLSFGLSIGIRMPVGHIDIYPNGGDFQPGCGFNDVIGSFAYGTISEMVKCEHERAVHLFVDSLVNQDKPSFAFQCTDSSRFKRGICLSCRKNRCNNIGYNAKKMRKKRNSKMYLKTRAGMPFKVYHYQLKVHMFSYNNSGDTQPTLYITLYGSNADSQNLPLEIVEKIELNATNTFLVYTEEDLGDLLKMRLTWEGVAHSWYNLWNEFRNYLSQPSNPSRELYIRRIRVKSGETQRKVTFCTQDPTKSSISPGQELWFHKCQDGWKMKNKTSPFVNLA

[3] = biological target: T2, human [1-305]-mouse chimeric EL (human; mouse, UniProt Q9WVG5 306-500); test: cell-based or functional assay
T2 sequence: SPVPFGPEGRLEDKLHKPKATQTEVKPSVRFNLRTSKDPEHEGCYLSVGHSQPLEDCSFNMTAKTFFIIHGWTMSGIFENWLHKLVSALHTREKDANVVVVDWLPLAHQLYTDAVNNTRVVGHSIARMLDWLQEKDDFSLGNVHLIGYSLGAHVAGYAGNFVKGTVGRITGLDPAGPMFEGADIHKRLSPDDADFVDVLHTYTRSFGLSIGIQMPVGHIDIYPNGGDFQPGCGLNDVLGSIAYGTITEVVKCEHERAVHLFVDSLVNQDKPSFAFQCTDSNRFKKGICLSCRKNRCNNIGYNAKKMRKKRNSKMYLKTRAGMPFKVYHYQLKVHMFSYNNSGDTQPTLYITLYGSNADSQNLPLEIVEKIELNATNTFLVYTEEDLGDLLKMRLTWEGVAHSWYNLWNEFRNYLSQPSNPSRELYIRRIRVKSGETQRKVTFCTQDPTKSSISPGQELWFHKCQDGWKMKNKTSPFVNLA

rabbit EL = rabbit EL (rabbit); test: cell-based or functional assay
baboon EL [4] = biological target: T3, baboon EL (baboon); test: Biacore (as for the other anti-EL antibodies)
T3 construct: Heparin extract

mouse EL [5] = biological target: T1, mouse EL; test: Biacore (as for the other anti-EL antibodies)
[6] = biological target: T2, human [1-305]-mouse chimeric EL; test: Biacore (as for the other anti-EL antibodies)
baboon EL [7] = biological target: T3, baboon EL; test: ELISA: antibody captured on anti-mouse IgG-Fc plate, EL heparin extract added, detection with biotin anti-C2-tag antibody and HRP-streptavidin, A450
[8] = biological target: T2, human [1-305]-mouse chimeric EL; test: as above
Chimeric EL [187-500] = biological target: T4, Chimeric EL [187-500] (mouse;human); test: as above
T4 construct: construct not described further; Used as heparin extract and detected through anti-C2-tag antibody; also called human (187-500) mouse chimera EL

B1: 16F6 (antibody, V domains shown)
VH: QVQLQQSGAELMKPGASVKISCKATGYTFSTYWIAWVKQRPGHGLEWIGEILPGSAKTKYNKKFKGKATFTADTSSNTAYMQLSSLTSEDSAVYYCAVYDYGADYWGQGTSVTVSS
VL: DIVMTQSHKFMSTSVGDRVSITCKASQDVYTAVAWYQQKPGQSPKLLIYSASYRFTGVPDRFTGSGAGTEFTFTINSVQAEDLAVYYCQQHYSIPRTFGGGTKLEIK
notes: mouse IgG1 raised in EL knock-out mice; not tied one by one
With B1 the “Neutralizing activity IC50” value (baboon EL [1]) was 2.8 nM, the “Neutralizing activity IC50” value (mouse EL [2]) was 2.5 nM and the “Neutralizing activity IC50” value [3] was 4 nM. For the same binder, the “Neutralizing activity IC50” value (rabbit EL) was 2.3 nM, the Kd (baboon EL [4]) was 0.42 nM and the koff (baboon EL [4]) was 0.0001 s⁻¹. For the same binder, the kon (baboon EL [4]) was 240000 M⁻¹ s⁻¹, the Kd (mouse EL [5]) was 0.68 nM and the koff (mouse EL [5]) was 0.00015 s⁻¹. The kon (mouse EL [5]) was 220000 M⁻¹ s⁻¹, the Kd [6] was 14 nM and the koff [6] was 0.004 s⁻¹. The kon [6] was 330000 M⁻¹ s⁻¹, the “EC50 (read off the curve)” value (baboon EL [7]) was about 0.02 µg/mL and the “EC50 (read off the curve)” value [8] was about 0.002 µg/mL. The “EC50 (read off the curve)” value (Chimeric EL [187-500]) was about 0.02 µg/mL.
